Measurements as given in paper PMC6825195.

What was measured:
[1] = biological target: cytochrome c oxidase, regulatory competent, from bovine liver (bovine)
[2] = biological target: apoptotic protease-activating factor 1 (mouse (endogenous in Cytc knockout embryonic fibroblasts)) (UniProt O88879)
UniProt O88879, sequence (O88879 whole entry): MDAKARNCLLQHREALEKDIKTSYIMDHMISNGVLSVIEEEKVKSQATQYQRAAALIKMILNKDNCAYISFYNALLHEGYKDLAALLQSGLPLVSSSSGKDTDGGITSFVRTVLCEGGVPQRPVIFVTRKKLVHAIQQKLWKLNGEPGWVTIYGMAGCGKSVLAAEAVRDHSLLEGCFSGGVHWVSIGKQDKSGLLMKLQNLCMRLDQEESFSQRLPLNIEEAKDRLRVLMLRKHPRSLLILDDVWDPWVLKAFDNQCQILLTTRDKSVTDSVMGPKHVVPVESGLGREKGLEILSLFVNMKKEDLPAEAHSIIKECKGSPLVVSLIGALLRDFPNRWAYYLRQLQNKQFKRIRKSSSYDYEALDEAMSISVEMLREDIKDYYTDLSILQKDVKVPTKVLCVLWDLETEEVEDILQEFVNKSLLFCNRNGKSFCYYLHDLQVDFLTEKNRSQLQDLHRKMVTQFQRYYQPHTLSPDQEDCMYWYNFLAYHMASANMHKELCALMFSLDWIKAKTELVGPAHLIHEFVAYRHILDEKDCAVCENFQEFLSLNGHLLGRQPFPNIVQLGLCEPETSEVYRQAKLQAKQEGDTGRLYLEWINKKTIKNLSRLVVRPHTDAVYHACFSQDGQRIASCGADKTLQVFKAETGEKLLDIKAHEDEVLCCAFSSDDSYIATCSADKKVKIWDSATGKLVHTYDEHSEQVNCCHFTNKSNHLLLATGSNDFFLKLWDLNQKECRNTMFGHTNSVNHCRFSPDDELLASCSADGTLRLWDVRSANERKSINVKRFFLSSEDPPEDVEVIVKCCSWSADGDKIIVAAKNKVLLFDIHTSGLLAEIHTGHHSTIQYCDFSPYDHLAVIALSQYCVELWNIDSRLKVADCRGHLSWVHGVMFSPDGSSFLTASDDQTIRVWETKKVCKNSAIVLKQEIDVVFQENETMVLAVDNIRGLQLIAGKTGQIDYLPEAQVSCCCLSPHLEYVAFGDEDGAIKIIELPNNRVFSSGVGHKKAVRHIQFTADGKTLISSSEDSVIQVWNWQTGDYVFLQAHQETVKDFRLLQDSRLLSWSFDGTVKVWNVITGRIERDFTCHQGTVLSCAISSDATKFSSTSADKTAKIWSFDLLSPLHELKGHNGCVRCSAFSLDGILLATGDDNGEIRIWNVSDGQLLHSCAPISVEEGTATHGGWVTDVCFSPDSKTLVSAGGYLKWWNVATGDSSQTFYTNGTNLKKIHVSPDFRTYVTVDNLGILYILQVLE

apparent Km of Cytc in the reaction with cow liver COX (150 nM; 0-20 µM Cytc; oxygen consumption, polarography, 25 °C) [1] [µM] | cell-free caspase-3 activity (DEVD-R110 cleavage) in cytosolic extract of Cytc knockout fibroblasts with 20 µg/mL Cytc, reduction compared to WT (% reduction compared to WT) [2] | oxygen consumption rate (turnover) of purified cow liver COX with 0-20 µM Cytc, reduction compared to WT Cytc (% reduction compared to WT) [1] | Substance
4.5 | 50 |  | T58A cytochrome c (from UniProt P62897 1-105) (natural protein)
2.5 | 60 | 25 | T58I cytochrome c (from UniProt P62897 1-105) (natural protein)
3 | 70 | 45 | phosphomimetic T58E cytochrome c (from UniProt P62897 1-105) (natural protein)
3 |  |  | wild-type cytochrome c (rodent somatic) (from UniProt P62897 1-105) (natural protein)
